In test [1] the target is T1, Transforming Growth Factor-β1 (TGF-β1) (UniProt P01137 279-390, 125I label in the affinity labeling assays).
T1 construct: The background describes TGF-β as a 25 kDa growth factor; also called I125TGF-β1
In words: SPR, BIACORE 3000; Peptide A amine-coupled on CM5 chip, TGF-β1 as analyte. The procedure: (§1) Surface plasmon resonance assay: CD109 protein and peptides were tested for their ability to bind TGF-β using surface plasmon resonance. CD109 protein and peptides were amine-coupled onto a gold-dextran CM5 sensor chip as the ligands and TGF-β1/2/3 in HBS-ET buffer as the analytes were pumped across the CD109 amine-coupled sensor chip and binding response was measured using BIACORE 3000™ SPR detection system.
Background: SPR reads the build-up and loss of mass on a sensor chip optically.

Test [2] addresses T2, soluble CD109 protein (full-length recombinant CD109) (human, UniProt Q6YHK3 22-1420, limits assumed).
T2 construct: also called FL CD109; CD109 soluble full-length protein
T2 sequence: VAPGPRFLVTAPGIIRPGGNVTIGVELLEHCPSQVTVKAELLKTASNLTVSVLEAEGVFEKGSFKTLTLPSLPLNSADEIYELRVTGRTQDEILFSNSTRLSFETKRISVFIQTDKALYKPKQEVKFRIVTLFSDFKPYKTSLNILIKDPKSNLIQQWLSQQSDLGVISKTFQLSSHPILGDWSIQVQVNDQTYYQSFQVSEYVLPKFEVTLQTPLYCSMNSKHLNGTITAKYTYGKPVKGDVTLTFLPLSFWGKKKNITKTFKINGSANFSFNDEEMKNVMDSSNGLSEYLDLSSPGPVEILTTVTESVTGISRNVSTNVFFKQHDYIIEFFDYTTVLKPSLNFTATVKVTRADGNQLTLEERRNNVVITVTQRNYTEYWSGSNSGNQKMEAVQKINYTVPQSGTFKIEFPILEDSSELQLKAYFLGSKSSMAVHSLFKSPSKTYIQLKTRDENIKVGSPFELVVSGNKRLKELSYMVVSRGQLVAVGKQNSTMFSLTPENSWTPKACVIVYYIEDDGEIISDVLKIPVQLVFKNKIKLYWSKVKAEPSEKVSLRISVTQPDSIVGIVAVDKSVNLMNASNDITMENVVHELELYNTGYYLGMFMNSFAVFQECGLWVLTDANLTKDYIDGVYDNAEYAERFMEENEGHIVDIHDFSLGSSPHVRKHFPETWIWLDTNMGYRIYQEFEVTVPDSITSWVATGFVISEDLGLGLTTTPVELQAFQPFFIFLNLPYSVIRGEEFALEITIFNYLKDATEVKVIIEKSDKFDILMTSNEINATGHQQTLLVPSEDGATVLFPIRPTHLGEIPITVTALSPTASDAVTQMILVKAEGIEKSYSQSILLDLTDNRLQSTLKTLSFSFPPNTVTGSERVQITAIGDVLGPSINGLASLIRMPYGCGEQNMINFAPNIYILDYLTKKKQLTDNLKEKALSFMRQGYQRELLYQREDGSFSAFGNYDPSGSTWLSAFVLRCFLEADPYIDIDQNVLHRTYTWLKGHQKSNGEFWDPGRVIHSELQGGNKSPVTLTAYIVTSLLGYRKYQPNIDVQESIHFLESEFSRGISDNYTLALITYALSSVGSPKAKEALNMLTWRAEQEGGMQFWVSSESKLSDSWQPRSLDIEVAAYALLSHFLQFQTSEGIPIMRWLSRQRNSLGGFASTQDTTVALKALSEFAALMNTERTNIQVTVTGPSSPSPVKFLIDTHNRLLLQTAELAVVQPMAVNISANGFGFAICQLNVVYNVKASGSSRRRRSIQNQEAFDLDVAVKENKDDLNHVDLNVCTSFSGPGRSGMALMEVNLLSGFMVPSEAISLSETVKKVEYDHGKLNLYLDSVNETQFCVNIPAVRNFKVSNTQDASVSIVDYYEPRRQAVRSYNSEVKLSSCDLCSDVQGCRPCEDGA
Kind of test: SPR, BIACORE 3000; CD109 amine-coupled on CM5 chip, TGF-β as analyte. How it is done:
as §1

Usually Kd stands for the free concentration of one partner at which half of the binding sites on the other are occupied at equilibrium, for simple one-to-one binding.

T1 sequence (P01137 279-390 limits assumed): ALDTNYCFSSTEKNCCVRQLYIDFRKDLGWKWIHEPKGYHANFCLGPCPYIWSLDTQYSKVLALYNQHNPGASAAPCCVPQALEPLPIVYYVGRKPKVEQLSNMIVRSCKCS

B1: CD109 Peptide A (CD109 amino acids 606-766) (peptide)
chain: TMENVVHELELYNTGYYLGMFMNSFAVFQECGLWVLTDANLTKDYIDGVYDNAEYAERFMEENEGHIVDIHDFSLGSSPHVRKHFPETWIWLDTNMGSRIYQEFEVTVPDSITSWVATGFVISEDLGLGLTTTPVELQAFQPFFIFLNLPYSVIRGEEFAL
notes: also called CD109-based peptide
As for B1, in test [1], the Kd was determined as 10 nM.

B2: TGF-β2 (ligand, UniProt P61812 303-414, looked up)
chain: ALDAAYCFRNVQDNCCLRPLYIDFKRDLGWKWIHEPKGYNANFCAGACPYLWSSDTQHSRVLSLYNTINPEASASPCCVSQDLEPLTILYYIGKTPKIEQLSNMIVKSCKCS
For B2, the dissociation constant Kd in test [2] is 1 nM.

Values taken from patent publication US20120079614A1 (ROYAL INSTITUTION FOR THE ADVANCEMENT OF LEARNING MCGILL …, published 2012).
